Measured values reported in the Immune Epitope Database (IEDB).
pIC50, pKd: −log10 of the molar value. One block for each sequence: values may come before it.

Experiments:
HLA-A*03:01 [1] = assay: IEDB peptide-MHC binding, purified MHC/competitive/radioactivity; ≥ and ≤ were set here for values at or beyond the usual limits of such assays; conditions: source organism: Human immunodeficiency virus type 1 (NDK ISOLATE)
HLA-A*01:01 = assay: IEDB peptide-MHC binding, purified MHC/competitive/radioactivity; filed as Kd, often an IC50 or EC50 that approximates it; ≥ and ≤ were set here for values at or beyond the usual limits of such assays
HLA-A*02:01 [2] = assay: as above
HLA-A*24:02 = assay: as above
HLA-A*11:01 = assay: as above
HLA-A*02:01 [3] = assay: IEDB peptide-MHC binding, purified MHC/competitive/radioactivity; ≥ and ≤ were set here for values at or beyond the usual limits of such assays; conditions: source organism: Hepatitis B virus subtype adyw
HLA-A*03:01 [4] = assay: IEDB peptide-MHC binding, purified MHC/competitive/radioactivity; filed as Kd, often an IC50 or EC50 that approximates it; ≥ and ≤ were set here for values at or beyond the usual limits of such assays
[5] = source organism: Human immunodeficiency virus type 1 (NDK ISOLATE)
[6] = source organism: Hepatitis B virus subtype adyw
[7] = source organism: Plasmodium falciparum

Sequence: AVDLSHFLK
- pIC50 (HLA-A*03:01 [1]): 6.83
- pKd (HLA-A*01:01; [5]): ≤ 5.30
- pKd (HLA-A*02:01 [2]; [5]): ≤ 5.30
- pKd (HLA-A*24:02; [5]): ≤ 5.30

- pKd (HLA-A*11:01; source organism: Homo sapiens): ≤ 5.30
- pKd (HLA-A*24:02; source organism: Homo sapiens): ≤ 5.30
Sequence: EADPTGHSY

Sequence: ELRSRYWAI
- pKd (HLA-A*24:02; source organism: Influenza A virus (A/Puerto Rico/8/1934(H1N1))): ≤ 5.30

Sequence: FLPSDFFP
- pKd (HLA-A*02:01 [2]; [6]): ≤ 4.30

Sequence: FLPSDFFPS
- pIC50 (HLA-A*02:01 [3]): 6.93

Sequence: FLPSDFFPSVR
- pIC50 (HLA-A*02:01 [3]): 6.52

Sequence: ILKEPVHGV
- pKd (HLA-A*01:01; [5]): ≤ 5.30
- pKd (HLA-A*03:01 [4]; [5]): ≤ 5.30
- pKd (HLA-A*11:01; [5]): ≤ 5.30
- pKd (HLA-A*24:02; [5]): ≤ 5.30

Sequence: KPIVQYDNF
- pKd (HLA-A*01:01; [7]): ≤ 5.30
- pKd (HLA-A*03:01 [4]; [7]): ≤ 5.30
- pKd (HLA-A*02:01 [2]; [7]): ≤ 5.30
- pKd (HLA-A*11:01; [7]): ≤ 5.30
- pKd (HLA-A*24:02; [7]): ≤ 5.30

- pKd (HLA-A*01:01; source organism: Homo sapiens): ≤ 5.30
- pKd (HLA-A*03:01 [4]; source organism: Homo sapiens): ≤ 5.30
- pKd (HLA-A*02:01 [2]; source organism: Homo sapiens): ≤ 5.30
- pKd (HLA-A*11:01; source organism: Homo sapiens): ≤ 5.30
- pKd (HLA-A*24:02; source organism: Homo sapiens): ≤ 5.30
Sequence: KRYEGLTQR

- pKd (HLA-A*01:01; source organism: Homo sapiens): ≤ 5.30
- pKd (HLA-A*03:01 [4]; source organism: Homo sapiens): ≤ 5.30
- pKd (HLA-A*11:01; source organism: Homo sapiens): ≤ 5.30
- pKd (HLA-A*24:02; source organism: Homo sapiens): ≤ 5.30
Sequence: LLGRNSFEV

Sequence: PSDFFPSV
- pKd (HLA-A*02:01 [2]; [6]): ≤ 4.30

- pKd (HLA-A*01:01; source organism: Homo sapiens): ≤ 5.30
- pKd (HLA-A*03:01 [4]; source organism: Homo sapiens): ≤ 5.30
- pKd (HLA-A*02:01 [2]; source organism: Homo sapiens): ≤ 5.30
- pKd (HLA-A*11:01; source organism: Homo sapiens): ≤ 5.30
- pKd (HLA-A*24:02; source organism: Homo sapiens): ≤ 5.30
Sequence: RRYQKSTEL

Sequence: SFLPSDFFPSV
- pKd (HLA-A*02:01 [2]; [6]): ≤ 4.30

Sequence: WLSLLVPFV
- pKd (HLA-A*01:01; [6]): ≤ 5.30
